Measured values from publication PMC5404317.
Numbering of substitutions follows the chain as printed. In names and notes the source's numbering stands. Values belong to the binder of their own block, whether it stands above or below them.

Target: HSP90, P07900
Assay: co-immunoprecipitation (V5 agarose) with western blot quantification
Conditions: chain shown with the change, HeLa cells, read off a plot
[1] = 10 μM CCCP for 2 h, parent: est. 0.82
[2] = untreated (no CCCP), parent: est. 1.0

response (HSP90/V5 ratio) [1]: 0.42
response (HSP90/V5 ratio) [2]: 0.54
B1: PINK1-V5 WT (V5-6xHis-tagged PINK1 wild type), Q9BXM7 L347P (protein)
chain: AARLQRQFVVRAWGCAGPCGRAVFLAFGLGLGLIEEKQAESRRAVSACQEIQAIFTQKSKPGPDPLDTRRLQGFRLEEYLIGQSIGKGCSAAVYEATMPTLPQNLEVTKSTGLLPGRGPGTSAPGEGQERAPGAPAFPLAIKMMWNISAGSSSEAILNTMSQELVPASRVALAGEYGAVTYRKSKRGPKQLAPHPNIIRVLRAFTSSVPLLPGALVDYPDVLPSRLHPEGLGHGRTLFLVMKNYPCTLRQYLCVNTPSPRLAAMMLLQLPEGVDHLVQQGIAHRDLKSDNILVELDPDGCPWLVIADFGCCLADESIGLQLPFSSWYVDRGGNGCLMAPEVSTARPGPRAVIDYSKADAWAVGAIAYEIFGLVNPFYGQGKAHLESRSYQEAQLPALPESVPPDVRQLVRALLQREASKRPSARVAANVLHLSLWGEHILALKNLKLDKMVGWLLQQSAATLLANRLTEKCCVETKMKMLFLANLECETLCQAALLLCSWRAAL

response (HSP90/V5 ratio) [1]: 0.62
response (HSP90/V5 ratio) [2]: 0.6
B2: PINK1-V5 WT (V5-6xHis-tagged PINK1 wild type), Q9BXM7 I368N (protein)
chain: B1 chain with P270L, I291N
